Test results as given in paper PMC8939769.

Columns and labels:
[1] = target: SARS-CoV-2 S trimer (S2P ectodomain protein) (SARS-CoV-2) (UniProt P0DTC2)
[2] = target: SARS-CoV-2 S trimer (S2P ectodomain protein) (SARS-CoV-2) (UniProt P0DTC2); experiment: not stated; binding kinetics (ka, kd, KD) on the SARS-CoV-2 S trimer (S2P ectodomain protein); representative of at least two independent assays; assay details in the Supplementary materials

Substance: AZD7442 (combination of AZD8895 and AZD1061)
- neutralization of the USA-WA1/2020 strain of SARS-CoV-2 in vitro, IC50 [1]: 10 ng/mL
- Kd [2]: 0.0137 nM
